Key:
endogenous REST protein = assay: Western blot of endogenous REST protein levels in transfected E12.5 neurospheres; type: cell-based; settings: E12.5 mouse cortical neurospheres after transfection; MG132 4 h; compared to control peptides
Experimental: FIG. 7B is an image of a Western blot showing endogenous REST protein levels in E12.5 neurospheres after transfection. Lane 1, empty vector; lane 2, control (595-694) peptide; lane 3, REST(810-910) S861/864A peptide; lane 4, REST(810-910) WT peptide; lane 5, empty vector with MG132 treated for 4 h. The blot was probed with anti-mouse-REST antibody and anti-tubulin (loading control) antibodies.
There is a significant difference between REST (810-910) compared to control (595-694) peptide (n=5, p=0.0021) and REST(810-910) compared to S861/864A REST(810-910) (n=5, p=0.046). The difference between MG132 and REST(810-910) is not significant (n=5, p=0.7996, Sidak's multiple comparison test, error bars represent 95% confidence interval).
The Examples above used the REST (810-910) reporter as a surrogate substrate for signaling molecules that target S861/S864 on full-length REST. […]
Whole cell lysates were prepared and immunoprecipitated following the procedures in Ballas N et al, 2001 supra and Nesti E et al, Mol Biol Cell 15, 4073-4088 (2004); incorporated by reference herein. Western blots were performed by standard procedures using antibodies described below and analyzed using anti IgG conjugated to infrared dyes (ThermoFisher) on an Odyssey® infrared fluorescence imager (LiCor). […] Infrared fluorescence was detected on the Odyssey® imager (LiCor) in the 700 nm channel. […]

E12.5 neurospheres = assay: Neuronal differentiation of E12.5 neurospheres (MAP2 immunostaining); type: cell-based, mouse; settings: neurospheres differentiated 10 d, versus control (595-694) peptide, p<0.0001
From the text: FIG. 8A is a photomicrograph of representative immuno-labeled E12.5 neurospheres transfected with REST (810-910)- or control peptide-IRES-GFP, sorted, and then allowed to differentiate for 10 d in culture. White, DAPI nuclei; Red, MAP2 antibody.
Results are from three different transfections. Fields were selected from multiple places on the cover slip, number of cells indicated on bars (p<0.0001, unpaired t test).
Previous studies indicate that persistent REST expression in progenitors inhibits neuronal differentiation. Therefore, it was assessed whether stabilization of REST, via expression of the unmutated REST (810-910) peptide in neural progenitors, would also hinder neuronal differentiation. Mouse neurosphere cultures were immunostained for Microtubule Associated […] 2 (MAP2), a marker of mature neurons, at days 0 and 10 post-transfection. On day 0 there was negligible MAP2 signal and no significant difference between the two conditions.
HEK293T cells were transfected using Lipofectamine 2000 (Life Technologies) following the manufacturer's instructions. PC12 tet, PC12 tet-on FLAG-REST, and HEK293T cell lines were maintained as described in Ballas N et al 2001 supra. […]

neural progenitor cells = assay: Cortical neuronal migration after in utero electroporation in rat embryos; type: in vivo; settings: cDNA electroporated in utero at E16, harvested E18, 6 embryos, 18 cortical slices
Experimental: REST protein lacking S861/864 (negative control) and wild-type REST (810-910) peptide (experimental) were expressed in the lateral ventrical of the cortex of rat embryos (E16) by injection and in utero electroporation of the respective cDNA into neural stem cells. The embryos were then allowed to gestate for 48 hours (E18) prior to harvesting. Panel 1 and 2 are representative E18 cortical brain slices expressing REST protein lacking S861/864 (negative control) and wild-type REST protein (experimental).
FIG. 11B is a plot showing that the effect of wild type REST (810-910) peptide on neuronal migration is quantitative. […] No significant difference in neural stem cell migration between the control REST protein lacking S861/864 (negative control) and the wild-type REST (810-910) peptide (experimental) in the SVZ and the intermediate zone (IZ) (Boxes 1 and 2). […] Error bars represent standard deviation, (**P<0.001, *P<0.01 unpaired t test).

B1: REST (810-910) peptide: peptide encoding amino acids 810-to-910 of REST with unmutated S861/S864, expressed from cDNA (protein)
chain: ISKKPPLRKDKKEKSNMQSERARKEQVLIEVGLVPVKDSWLLKESVSTEDLAPPAPPLPKENLREEASGDQKLLNTGEGNKEAPLQKVGAEEADESLPGLA
Endogenous REST protein
  Endogenous full-length REST protein levels: significantly stabilized endogenous full-length REST protein
E12.5 neurospheres
  MAP2-positive cells: fewer MAP2-positive cells
Neural progenitor cells
  Migration of neural progenitor cells from the SVZ toward the cortical plate (CP): significantly less migration to the CP

— patent US20160031958A1, “METHODS AND COMPOSITIONS USEFUL IN MANIPULATING THE STABILITY OF RE1 SILENCING TRANSCRIPTION FACTOR” (OREGON HEALTH & SCIENCE UNIVERSITY, priority 2014, published 2016)
